Reference: publication PMC8050779

Assays:
[1] = target: oxytocin ion channel-coupled receptor with the T4 phage lysozyme domain, OXTR(T4L) fused to Kir6.2 (not stated | T4 phage) (UniProt P30559)
[2] = target: oxytocin ion channel-coupled receptor with the T4 phage lysozyme domain, OXTR(T4L) fused to Kir6.2 (not stated | T4 phage) (UniProt P30559); remark: listed apart in the source

Sequence of UniProt P30559 (P30559 whole entry, looked up, the tested form may be a part): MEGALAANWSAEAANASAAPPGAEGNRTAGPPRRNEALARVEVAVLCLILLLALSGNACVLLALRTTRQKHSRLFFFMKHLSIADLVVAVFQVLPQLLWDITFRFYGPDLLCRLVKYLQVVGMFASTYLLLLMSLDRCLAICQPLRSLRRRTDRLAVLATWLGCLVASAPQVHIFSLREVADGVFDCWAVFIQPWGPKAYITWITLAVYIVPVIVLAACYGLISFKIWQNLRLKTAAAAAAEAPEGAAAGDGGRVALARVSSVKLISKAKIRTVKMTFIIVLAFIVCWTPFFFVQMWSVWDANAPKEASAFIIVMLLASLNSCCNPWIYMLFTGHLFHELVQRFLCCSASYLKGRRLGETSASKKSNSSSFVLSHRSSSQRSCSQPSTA
Sequence of oxytocin (P01178 whole entry, looked up, the tested form may be a part): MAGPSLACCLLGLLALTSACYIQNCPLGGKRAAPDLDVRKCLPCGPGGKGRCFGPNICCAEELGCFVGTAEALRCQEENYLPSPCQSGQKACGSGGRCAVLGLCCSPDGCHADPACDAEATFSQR

An ICCR activation by 1 μM oxytocin, TEVC, after cholesterol depletion and repletion with cholesterol (% of the control before incubation) [1] of 70, an ICCR activation by 1 μM oxytocin, TEVC, after cholesterol depletion and repletion with cholesteryl hemi-succinate (CHS) (% of the control level before incubation) [1] of 45 and an amplitude of ICCR activation by 1 μM oxytocin, TEVC, after co-incubation with 20 mM MβCD and 5 μM oxytocin for at least 3 h and washing (% of the basal current) [2] of 100 were found for “oxytocin (from UniProt P01178 20-28) (peptide)” in this work. The amplitude of ICCR activation by 1 μM oxytocin, TEVC, control without MβCD (Buffer + 5 μM oxytocin, at least 3 h) (% of the basal current) [2] was 120.
